Assay results taken from paper PMC8948244, “Pumilio protects Xbp1 mRNA from regulated Ire1-dependent decay”.

Experiments:
[1] = biological target: T1, hPUM1-HD (Pum-HD domain of human PUM1) (Homo sapiens, UniProt Q14671 828-1168); test: competition; EMSA; 5x, 10x, 50x excess over biotin-labeled WT probe; shifted band disappeared; 10 mM Hepes/KOH pH 7.4, 50 mM KCl, 3 mM MgCl2, 1 mM EDTA, 0.1 mg/ml yeast tRNA, 2 mM DTT, 0.01% Tween-20, 0.2 U RNasin, 5% glycerol, 20 µl; 1 h on ice; 6% native gel, 0.5x TBE, room temperature; settings: protein: recombinant; single strand
T1 sequence (Q14671 828-1168): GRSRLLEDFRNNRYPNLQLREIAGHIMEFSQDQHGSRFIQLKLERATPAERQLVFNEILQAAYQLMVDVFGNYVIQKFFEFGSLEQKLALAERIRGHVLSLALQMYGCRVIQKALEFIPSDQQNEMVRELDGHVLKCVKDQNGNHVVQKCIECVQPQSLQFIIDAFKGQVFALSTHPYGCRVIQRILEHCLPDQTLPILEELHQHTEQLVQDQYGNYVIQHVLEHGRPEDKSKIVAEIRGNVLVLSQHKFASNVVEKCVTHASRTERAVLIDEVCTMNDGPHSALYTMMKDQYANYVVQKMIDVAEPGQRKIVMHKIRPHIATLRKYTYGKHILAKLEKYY

[2] = biological target: T1, hPUM1-HD (Pum-HD domain of human PUM1); test: competition; EMSA; 5x, 10x, 50x excess (source data label: 25x) over biotin-labeled WT probe; no effect; 10 mM Hepes/KOH pH 7.4, 50 mM KCl, 3 mM MgCl2, 1 mM EDTA, 0.1 mg/ml yeast tRNA, 2 mM DTT, 0.01% Tween-20, 0.2 U RNasin, 5% glycerol, 20 µl; 1 h on ice; 6% native gel, 0.5x TBE, room temperature; settings: protein: recombinant; single strand
[3] = biological target: T1, hPUM1-HD (Pum-HD domain of human PUM1); test: EMSA; 100-300 nM protein, 10 nM probe; 10 mM Hepes/KOH pH 7.4, 50 mM KCl, 3 mM MgCl2, 1 mM EDTA, 0.1 mg/ml yeast tRNA, 2 mM DTT, 0.01% Tween-20, 0.2 U RNasin, 5% glycerol, 20 µl; 1 h on ice; 6% native gel, 0.5x TBE, room temperature; settings: protein: recombinant; label: 3' biotin-TEG; single strand

## GAUAGGCUGUACAUAAAUUCAUAAUCG (ssRNA) [pum1site-wt (unlabeled competitor)]
[1]
  binding result: binds

## GAUAGGCACAACAUAAAUUCAUAAUCG (ssRNA) [pum1site-mut (unlabeled competitor, UGUA to ACAA)]
[2]
  binding result: no binding

## GAUAGGCUGUACAUAAAUUCAUAAUCG (ssRNA) [pum1site-wt-3BioTEG (Xbp1 3'UTR PRE1)]
[3]
  binding result: binds
